Test results from patent publication US20250085298A1 (TRITON SYSTEMS, published 2025).

T1: rabbit α-crystallin A (CRYAA), native protein in rabbit intraocular fluid (rabbit, UniProt P02493 1-173, limits assumed)
T1 construct: Analyte of the lateral flow assay in rabbit samples; also called Crystallin-αA; αA-Crystallin
T1 sequence (looked up): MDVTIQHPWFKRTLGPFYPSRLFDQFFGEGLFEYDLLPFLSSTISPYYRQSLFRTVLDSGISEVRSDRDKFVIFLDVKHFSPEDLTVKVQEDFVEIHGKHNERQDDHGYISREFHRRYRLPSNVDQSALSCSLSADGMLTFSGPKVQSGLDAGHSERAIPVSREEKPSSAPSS


Key:
[1] = target: T1, rabbit α-crystallin A (CRYAA), native …; test: lateral flow sandwich strip, MAB1601-AuNP conjugate with MAB1301 test line; swab of rabbit eye, Arm 3: 3 mm full-thickness laceration, AC/limbus, no confounder
Procedure: (§1) The expected results were that either one, or two, distinct red lines would form on the readout area of the test strip. The bottom half of the readout area on the nitrocellulose strip was expected to always show a red line (control), while appearance of the second line confirmed a positive result. The results were documented and whole test strip was imaged after removing the top of its plastic casing. The test strips were labelled and shipped on cold packs. For the second sample, 10-30 μL (as much as possible up to 30 μL) of the remaining ocular film was drawn by pipette and deposited in a microcentrifuge tube labeled with identities corresponding to the test strips. To this liquid sample, an equal volume of RNAlater solution was added and the sample was stored at −80° C. until shipment to the client on dry ice. Following sedation, rabbits were euthanized by intravenous barbiturate overdose. Euthasol® was delivered via the marginal ear vein at a concentration of 390 mg/ml, and a dose of 87 mg/kg. Following confirmation of euthanasia, whole corneas with sclera rims were collected and immediately placed in PBS. The medium was then exchanged for freshly made 4% PFA and tissue was fixed at room temperature for 23 hours. The tissue was then embedded in paraffin and shipped for further analysis. […]

[2] = target: T1, rabbit α-crystallin A (CRYAA), native …; test: lateral flow sandwich strip, MAB1601-AuNP conjugate with MAB1301 test line; swab of rabbit eye, Arm 9: 1 mm full-thickness puncture, peripheral cornea, no confounder
Procedure: as §1

Binder | binding result [1] | binding result [2]
MAB1601 (Conjugate Ab; target recognition element) (antibody, mouse IgG1, kappa, V domains shown, Custom anti-CRYAA monoclonal antibody made in mice against the modified C-terminal CRYAA immunogen; In the assay its amines were coupled to carboxyl gold nanoparticles by EDC/sNHS chemistry; also called conjugate antibody; upstream target recognition element) VH: EVKLQESGPSLVKPSQTLSLTCSVTGDSITSGYWNWIRKFPGNKLEYMGYISYSGSTYFNPSLKSRISITRDTSKNQYYLQLNSVTTEDTATYYCSTGFAYWGQGTLVTVSA VL: DIVMSQSPSSLAVSVGEKVIMRCNSSQSLLYSGNRENYLAWYQQKPGQSPNLLIYWASRRASGVPDRFAGGGSGTDFTLTISSVKAEDLAVYYCQHYYNYPLTFGAGTRLELKR | binds | 
MAB1301 (Test Line Ab; test element) (antibody, mouse IgG1, kappa, V domains shown, Custom anti-CRYAA monoclonal antibody made in mice; It was immobilised on the nitrocellulose test line; also called MAB1301 T-line; test-line antibody) VH: EVKLQESGPSLVRPGASVKMSCKASGYTFTSYNMHWVKQTPRQGLEWIGAIYPGNGDTSYNQKFKGKATLTVDKSSSTAYMQLSSLTSEDSAVYFCARVVYYSNSYWYFDVWGTGTTVTVSA VL: DIVMSQSPSSLAVSVGEKVIMRCNSSQSLLYSGNRENYLAWYQQKPGQSPNLLIYWASRRASGVPDRFAGSGSGTDFTLTISSVKAEDLAVYYCQHYYNYPLTFGAGTRLELKR |  | binds
